Experimental data taken from paper PMC9352680, “A comprehensive thermodynamic model for RNA binding by the Saccharomyces cerevisiae Pumilio protein PUF4”.

T1: PUF4 RNA-binding domain (Saccharomyces cerevisiae, UniProt P25339 537-888)
T1 sequence: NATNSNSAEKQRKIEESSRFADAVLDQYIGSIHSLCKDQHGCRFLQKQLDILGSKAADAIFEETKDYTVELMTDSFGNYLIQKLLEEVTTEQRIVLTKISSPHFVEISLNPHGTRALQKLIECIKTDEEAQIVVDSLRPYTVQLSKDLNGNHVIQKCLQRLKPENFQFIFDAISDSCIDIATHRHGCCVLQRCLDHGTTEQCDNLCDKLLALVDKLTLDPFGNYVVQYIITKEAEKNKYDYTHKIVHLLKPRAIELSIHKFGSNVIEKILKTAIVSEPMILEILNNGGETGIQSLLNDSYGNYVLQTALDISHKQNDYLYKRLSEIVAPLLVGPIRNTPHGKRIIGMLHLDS

B1: Id_ii_S4_P5E.4_K5.3_C5.2_[C-2G]_[T-1C]_H5.3_A5.1_F5.1_T5.2_[T11A]_[A12T] (ssRNA)
RNA: UUUGACAACUGAUCGUUCUUUCUGCACACUUAUUAAUUUCUUUCUCGAUCAGUUGUCUUU
B2: Id_ii_S4_P5E.4_K5.3_C5.2_[C-2T]_[T-1A]_H5.3_A5.1_F5.1_T5.2_[A12C] (ssRNA)
RNA: UUUGACAACUGAUCGUUCUUUCUUAACACUUAUUAUCUUCUUUCUCGAUCAGUUGUCUUU
B3: Id_ii_S4_P5E.4_K5.3_C5.2_[C-2T]_[T-1A]_H5.3_A5.1_F5.1_T5.2 (ssRNA)
RNA: UUUGACAACUGAUCGUUCUUUCUUAACACUUAUUAUAUUCUUUCUCGAUCAGUUGUCUUU
B4: Id_ii_S4_P5E.4_K5.3_C5.2_[C-2T]_[T-1C]_H5.3_A5.1_F5.1_T5.2_[A12T] (ssRNA)
RNA: UUUGACAACUGAUCGUUCUUUCUUCACACUUAUUAUUUUCUUUCUCGAUCAGUUGUCUUU
B5: Id_ii_S4_P5E.4_K5.3_C5.2_[C-2A]_[T-1A]_H5.3_A5.1_F5.1_T5.2 (ssRNA)
RNA: UUUGACAACUGAUCGUUCUUUCUAAACACUUAUUAUAUUCUUUCUCGAUCAGUUGUCUUU
B6: Id_ii_S4_P5E.3_K5.2_C5.2_H5.2_A5.1_F5.1_T5.2_[T11C]_[A12G] (ssRNA)
RNA: UUUGACAACUGAUCGUUCUUUCUCUUAUAUUAUUACGUUCUUUCUCGAUCAGUUGUCUUU
B7: Id_ii_S4_P5E.3_K5.2_C5.2_H5.2_A5.1_F5.1_T5.2_[A12T] (ssRNA)
RNA: UUUGACAACUGAUCGUUCUUUCUCUUAUAUUAUUAUUUUCUUUCUCGAUCAGUUGUCUUU
B8: Id_ii_S4_P5E.4_K5.3_C5.2_[C-2A]_H5.3_A5.1_F5.1_T5.2_[A12G] (ssRNA)
RNA: UUUGACAACUGAUCGUUCUUUCUAUACACUUAUUAUGUUCUUUCUCGAUCAGUUGUCUUU
B9: Id_ii_S4_P5E.4_K5.3_C5.2_[C-2A]_H5.3_A5.1_F5.1_T5.2_[A12T] (ssRNA)
RNA: UUUGACAACUGAUCGUUCUUUCUAUACACUUAUUAUUUUCUUUCUCGAUCAGUUGUCUUU
B10: Id_ii_S4_P5E.4_K5.3_C5.2_[C-2G]_H5.3_A5.1_F5.1_T5.2_[A12C] (ssRNA)
RNA: UUUGACAACUGAUCGUUCUUUCUGUACACUUAUUAUCUUCUUUCUCGAUCAGUUGUCUUU
B11: Id_ii_S4_P5E.4_K5.3_C5.2_[T-1G]_H5.3_A5.1_F5.1_T5.2 (ssRNA)
RNA: UUUGACAACUGAUCGUUCUUUCUCGACACUUAUUAUAUUCUUUCUCGAUCAGUUGUCUUU
B12: Id_ii_S4_P5E.3_K5.2_C5.2_H5.2_A5.1_F5.1_T5.2_[T11C]_[A12T] (ssRNA)
RNA: UUUGACAACUGAUCGUUCUUUCUCUUAUAUUAUUACUUUCUUUCUCGAUCAGUUGUCUUU
B13: Id_ii_S4_P5E.4_K5.3_C5.2_[C-2G]_H5.3_A5.1_F5.1_T5.2_[A12T] (ssRNA)
RNA: UUUGACAACUGAUCGUUCUUUCUGUACACUUAUUAUUUUCUUUCUCGAUCAGUUGUCUUU
B14: Id_ii_S4_P5E.4_K5.3_C5.2_[C-2A]_[T-1C]_H5.3_A5.1_F5.1_T5.2_[A12G] (ssRNA)
RNA: UUUGACAACUGAUCGUUCUUUCUACACACUUAUUAUGUUCUUUCUCGAUCAGUUGUCUUU
B15: Id_ii_S4_P5E.4_K5.3_C5.2_[C-2G]_H5.3_A5.1_F5.1_T5.2_[T11A]_[A12T] (ssRNA)
RNA: UUUGACAACUGAUCGUUCUUUCUGUACACUUAUUAAUUUCUUUCUCGAUCAGUUGUCUUU
B16: Id_ii_S4_P5E.4_K5.3_C5.2_[T-1C]_H5.3_A5.1_F5.1_T5.2_[T11C]_[A12T] (ssRNA)
RNA: UUUGACAACUGAUCGUUCUUUCUCCACACUUAUUACUUUCUUUCUCGAUCAGUUGUCUUU
B17: Id_ii_S4_P5E.4_K5.3_C5.2_[C-2T]_H5.3_A5.1_F5.1_T5.2_[T11A]_[A12T] (ssRNA)
RNA: UUUGACAACUGAUCGUUCUUUCUUUACACUUAUUAAUUUCUUUCUCGAUCAGUUGUCUUU
B18: Id_ii_S4_P5E.4_K5.3_C5.2_[C-2T]_H5.3_A5.1_F5.1_T5.2_[A12T] (ssRNA)
RNA: UUUGACAACUGAUCGUUCUUUCUUUACACUUAUUAUUUUCUUUCUCGAUCAGUUGUCUUU

target: T1, PUF4 RNA-binding domain; assay: Mg; RNA-MaP; 20 mM Na-HEPES pH 7.4, 30 mM KOAc, 0.75 mM MgCl2, 0.1% Tween-20, 5% glycerol, 0.1 mg/mL BSA, 2 mM DTT; 25 C; 0.0125-409.6 nM protein; conditions: tags: N-His6-TEV cleaved; C-SNAP kept, Cy3B-labelled; label: tethered on chip by stalled RNA polymerase

Going from UCUCUUUGUAUUGUUAUCUCUU (ssRNA) [Ia_S1_P5E.1_K5.1_C5.1_H5.1_A5.1_[A7G]_F5.1_T5.1] to B1, the Kd rises from 11.2 nM to 559 nM (50-fold).

Compared with B2, B3 is lower in Kd: > 2300 nM for the first, 893 nM for the second. The second binds more tightly here.

Going from B4 to B5, the Kd falls from > 2300 nM to 845 nM.

Going from B6 to B7, the Kd falls from 470 nM to 168 nM (2.8-fold).

Compared with B8, B9 is 3.3-fold lower in Kd: 1530 nM for the first, 467 nM for the second.

Going from B10 to B11, the Kd rises from 3 nM to 1170 nM (390-fold). The first binds more tightly here.

First: B12
Second: B13
The Kd of the first is 36-fold higher: 96.6 nM for the first, 2.65 nM for the second. The second binds more tightly here.

First: B14
Second: B15
The Kd of the first is higher: > 2300 nM for the first, 2.81 nM for the second. The second binds more tightly here.

B16 and B17 cannot be ordered by Kd: > 2300 nM for the first, > 2300 nM for the second.

First: B18
Second: UCUCUUUGUCCUAUUAUCUCUU (ssRNA) [Ib_S1_P5E.1_K5.1_C5.1_H5.1_[A4C]_A5.1_[T5C]_F5.1_T5.1]
The Kd of the first is higher: > 2300 nM for the first, 79.5 nM for the second. The second binds more tightly here.

Binder UCUCUUUGUUGUAUUAUCUCUU (ssRNA) [Ib_S1_P5E.1_K5.1_C5.1_H5.1_[A4T]_A5.1_[T5G]_F5.1_T5.1] has a Kd of 22.2 nM.
